From patent US20220073643A1 (NANJING GENSCRIPT BIOTECH, published 2022)
Substitutions are numbered along the chain they refer to.

B1: 406G3C4 (antibody, V domains shown)
VH: EIQLQQSGPELMKPGASVRISCKASGYSFISYYIYWVKQSHGKGLEWIGYIDPFNGNTNYNQKFKGKATLTVDRSSSTAYIHLNSLTSEDSAVYYCAIVNGYGRGAMDYWGQGTSVTVSS
VL: QIVLTQSPAIMSASPGEKVTMTCSASSSISYMHWYQQKSGTSPKRWIYDTSKLASGVPARFSGSGSGTSYSLTISSMEAEDAATYYCQQWSSNPLTFGDGTKLELK
notes: mouse hybridoma mAb
B2: 392C2F10 (antibody, V domains shown)
VH: EVQLQQSGPELVKPGASMKISCKASGYSFTGYTMNWVKQSLGKNLEWIGLINPFNGGTTYNQKFKGKATLTVDKSSSTAYMELLSLTSDDSAVYYCTRGDYWGQGTTLTVSS
VL: DIVMTQSPSSLTVTAGEKVTMSCKSSQSLLNSGNQKNYLTWYQQKPGQPPKLLIYWASTRESGVPDRFAGSGSGTDFTLTISSVQAEDLAVYYCQSDYSYPTFGAGTKLELK
notes: mouse hybridoma mAb
B3: 413C12F8 (antibody, V domains shown)
VH: DVQLVESGGGLVQPGGSRKLSCAASGFTFSGFGVHWIRQTPEKGLEWVAYIGSGSRPIYYADTVKGRFTISRDNPKNTLFLQMTSLRSEDTAMYFCARFYYGNSFDHWGQGTLVTVSA
VL: DIVMTQSPSFLTVTAGEKVTMNCRSSQSLLNSGNQKNYLTWYQQRPGQPPKLLIYWASTRESGVPDRFTGSGSGTDFTLTISSVQAEDLALYYCQNAYSFPLTFGAGTKLELK
notes: mouse hybridoma mAb
B4: 405G8F11 (antibody, V domains shown)
VH: DVQLVESGGGLVQPGGSRKLSCVTSGFTFSSFGMHWVRQAPEKGLEWVAYISSGSSPIYYADTVKGRFTISRDNPKNTLFLQMSSLRSEDTAMYFCARFYYGNSFAYWGQGTLVTVSA
VL: B3 VL with F10S, R24K, R45K, P46L, I54M, L91V, Y93F, N96S, Y98F, F100Y
notes: mouse hybridoma mAb
B5: 407H12E6 (antibody, V domains shown)
VH: B4 VH with V23A, T24A, F29V, S84T, M93I, A106D, Y107H
VL: DIVMTQSPSSLTVTTGEKVTMSCKSSQSLLNSGNQKNYLTWYQQKPGQSPKLLIYWASTRESGVPDRFTGSGSGTDFTLTISSVQTEDLAVYFCQNNYFFPLTFGAGTKLELK
notes: mouse hybridoma mAb
B6: 414A5F7 (antibody, V domains shown)
VH: B4 VH with V23A, T24A, S84T, F99I
VL: DIVMTQSPSSLTVTAGEKVAMSCKSSQTLLNSGNQKNYLTWYQQKPGQPPKLLLYWASTRESGVPDRFTGSGSGTDFTLTISSVQAEDLAVYYCQNAYYYPLTFGSGTKLELK
notes: mouse hybridoma mAb
B7: 419B5G9 (antibody, V domains shown)
VH: DVQLVESGGGLVQPGGSRKLSCAASGFTFSTFGMHWVRQAPEKGLEWVAYISGGSTTIFYADTVKGRFTISRDNPKNTLFLQMTSVRSEDTAMYYCARFYYGNSFAYWGPGTLVTVST
VL: B6 VL with A20T, T28S, L52M, L54I, Y99S, S106A
notes: mouse hybridoma mAb
B8: 416F12F3 (antibody, V domains shown)
VH: B4 VH with V23A, T24A, P57T, D62H, T63S, S84T, R87G, F95Y
VL: B6 VL with A20T, M21L, T28S, L52M, L54I, Y99T, S106A, K109R
notes: mouse hybridoma mAb
B9: 410A9A9 (antibody, V domains shown)
VH: B4 VH with V23A, T24A, S84T, R98T
VL: B6 VL with A20T, P46S, L54I, Y99S, L102V, L110V
notes: mouse hybridoma mAb
B10: 423B2B5 (antibody, V domains shown)
VH: B4 VH with V23A, T24A, A61S, F99I, A106D, Y107H
VL: B3 VL with F10S, R24K, R45K, L91V, A97D, F100Y
notes: mouse hybridoma mAb
B11: 418B8B10 (antibody, V domains shown)
VH: B4 VH with V23A, T24A, A61T, S84T, A106D, Y107H
VL: B6 VL with A20S, T28S, L30F, S32R, N37S, K45R, L54I, A97N, Y99I, S106A
notes: mouse hybridoma mAb
B12: 413B1C9 (antibody, V domains shown)
VH: B4 VH with V23A, T24A, S84T, A106D, Y107H
VL: B5 VL with T20S, L30F, S32R, N37S, S49P, T86A, F93Y, F99I, F100Y
notes: mouse hybridoma mAb
B13: 393C2C5 (antibody, V domains shown)
VH: B4 VH with V23A, T24A, S84T, R98T
VL: B6 VL with A20T, P46S, L54I, Y99S, L102V, L110V
notes: mouse hybridoma mAb
B14: 420H3H9 (antibody, V domains shown)
VH: B4 VH with V23A, T24A, P57T, D62H, T63S, S84T, R87G, F95Y
VL: B6 VL with A20T, M21L, T28S, L52M, L54I, V91D, Y99T, S106A, K109R
notes: mouse hybridoma mAb
B15: 412B6E4 (antibody, V domains shown)
VH: B4 VH with V23A, T24A, M34V, P57T, D62H, T63S, S84T, R87G, M93T, F95Y
VL: B6 VL with A20T, T28S, L52M, L54I, Y99T, S106A, K109R
notes: mouse hybridoma mAb
B16: 422F4B6 (antibody, V domains shown)
VH: B4 VH with V23A, T24A, T28S, T69I, S84T, F99I
VL: B6 VL with A20T, L54I, Y99S
notes: mouse hybridoma mAb
B17: 420G10G3 (antibody, V domains shown)
VH: B3 VH with V34M, P41A, G52S, K65Q
VL: B3 VL with N22S, R24K, R45K
notes: mouse hybridoma mAb
B18: 420F12G8 (antibody, V domains shown)
VH: B3 VH with T28A, V34M, G52S, A97V
VL: B3 VL with N22T, S28N, R45K, Y55S, A86P, L102F
notes: mouse hybridoma mAb
B19: 426H6E11 (antibody, V domains shown)
VH: B3 VH with V34M, G52S, K65Q, A118S
VL: B3 VL with S7F, N22S, R24K, S28T, R45K, K109N
notes: mouse hybridoma mAb
B20: 430B3F1 (antibody, V domains shown)
VH: B3 VH with V34M, G52S, S55G, K65Q, V116I, A118S
VL: B3 VL with N22S, R24K, R45K
notes: mouse hybridoma mAb
B21: 420D5H5 (antibody, V domains shown)
VH: B3 VH with F29L, V34M, G52S, A61V, K65E, A118S
VL: B3 VL with N22S, R24K, R45K, S82R, S83G
notes: mouse hybridoma mAb
B22: 425B3D5 (antibody, V domains shown)
VH: B3 VH with V34M, G52S, K65Q, A118S
VL: B3 VL with N22S, R24K, R45K
notes: mouse hybridoma mAb
B23: 425C6D3 (antibody, V domains shown)
VH: B3 VH with V34M, G52S, K65Q, A118S
VL: B3 VL with N22S, R24K, R45K
notes: mouse hybridoma mAb
B24: 426D9F6 (antibody, V domains shown)
VH: B3 VH with V34M, G52S
VL: B3 VL with N22S, R24K, K36R, R45K, I81V
notes: mouse hybridoma mAb
B25: 414H6G2 (antibody, V domains shown)
VH: B3 VH with V34M, P41A, G52S, K65Q
VL: B3 VL with N22S, R24K, R45K
notes: mouse hybridoma mAb
B26: 419A5F3 (antibody, V domains shown)
VH: B3 VH with V34M, G52S, G54D, A97G
VL: B3 VL with M21L, N22S, K36R, R45K, L89R, A106T, K113R
notes: mouse hybridoma mAb
B27: 422E8F9 (antibody, V domains shown)
VH: B3 VH with V34M, G52S, K65Q, A118S
VL: B3 VL with N22S, R24K, R45K
notes: mouse hybridoma mAb
B28: 419A10D4 (antibody, V domains shown)
VH: B3 VH with V34M, G52S
VL: B3 VL with N22S, R24K, K36R, R45K, I81V
notes: mouse hybridoma mAb
B29: 421H4G3 (antibody, V domains shown)
VH: B3 VH with T28S, V34L, G52S, Y101F, A118T
VL: B3 VL with N22S, K36R, R45K, S82N
notes: mouse hybridoma mAb
B30: 410H6H3 (antibody, V domains shown)
VH: DVLLVESGGGLVQPGGSRKLSCAASGFTFSSSGMHWVRQAPEKGLEWVAYISSGSNTIYYADTLKGRFTISRDNPKNTLFLQMTSLRSEDTAMYYCARIYYGNSFVYWGQGTLVTVSA
VL: B6 VL with A20I, T28S, L52M, L54I, T69R, A97N, S106T, E111A
notes: mouse hybridoma mAb
B31: 429H6C5 (antibody, V domains shown)
VH: DVQLVESGGGLVQPGGSRKLSCAASGFTFSSFGMHWVRQAPEKELEWVAYISSGSSTIYYAHTVKGRFTISRDNPKNTLFLRMTSLGSEDTAMYYCVRFYYGNSFVNWGQGTLVTVSA
VL: B6 VL with V13A, A20T, T28S, L52M, L54I, T69A, Y99I, S106A, K109R
notes: mouse hybridoma mAb
B32: 370E2B12C3 (antibody, V domains shown)
VH: QVQLKESGPGLVAPSQSLSITCTVSGFSLTTYGVHWVRQPPGKGLEWLGVIWAGGSTNYNSALMSRVSINKDNSKSQVFIKMNSLQADDTALYYCARAAYYGNGLDYWGQGTTLTVSS
VL: B6 VL with A20T, L54I, R60G, Y93F, Y99F, L102F, S106G, L112I
notes: mouse hybridoma mAb
B33: 423C10E1 (antibody, V domains shown)
VH: B4 VH with Y50F, S53G, S55G, Y59F, T63S, I70V, S84T, S85G, Y101F
VL: DIVMTQSPSSLTVTAGEKVTMNCRSSQSLFNSGNQKNYLTWYQQKPGQSPKLLIYWASTRESGVPVRFTGSGSGTDFTLTISSVQAEDLAVYYCQTSFNYPLTFGPGTKLELK
notes: mouse hybridoma mAb
B34: 420H7E6 (antibody, V domains shown)
VH: B4 VH with V37I, Y50F, S53G, S55G, Y59F, T63S, I70V, S84T, S85G, Y101F
VL: B33 VL with T5A, S49P, S97G, N99S
notes: mouse hybridoma mAb

Target: T1, human Claudin18.2 (human)
T1 construct: also called CLDN18.2
Assay: cell ELISA, Claudin18.2-expressing HEK293T cells
Summary of the method: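 Claudin18.2-expressing HEK293T stable cells (1.5×10⁶ cells/ml in 5% skim milk/PBS blocking buffer) were incubated 1 h at room temperature in plates pre-blocked overnight at 4° C. EC₅₀ was derived by four-parameter curve fit.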

| Binder | EC50 |
| --- | --- |
| B1 | 12.6 nM |
| B2 | 350 nM |
| B3 | 3.55 nM |
| B4 | ~91.2 nM |
| B5 | 2.39 nM |
| B6 | 15.5 nM |
| B7 | 22.5 nM |
| B8 | 14.7 nM |
| B9 | 6.21 nM |
| B10 | 12.7 nM |
| B11 | 3.17 nM |
| B12 | 24.6 nM |
| B13 | 4.45 nM |
| B14 | 20.7 nM |
| B15 | 33.1 nM |
| B16 | 2.53 nM |
| B17 | 2.39 nM |

| Binder | EC50 |
| --- | --- |
| B18 | 2.61 nM |
| B19 | 1.78 nM |
| B20 | 2.56 nM |
| B21 | 7.03 nM |
| B22 | 2.61 nM |
| B23 | 1.92 nM |
| B24 | 2.14 nM |
| B25 | 12 nM |
| B26 | 2.61 nM |
| B27 | 1.88 nM |
| B28 | 2.33 nM |
| B29 | 2.47 nM |
| B30 | 45.5 nM |
| B31 | 13.2 nM |
| B32 | 0.522 nM |
| B33 | 2.46 nM |
| B34 | 2.94 nM |
